Source: paper PMC2880918

Columns and labels:
[1] = target: Nucleosome Assembly Protein 1 (Nap1) (UniProt P25293); test: FRET or BRET
[2] = target: H2A–H2B dimer (Xenopus laevis) (UniProt P06897); test: FRET or BRET

Substance | Kd [1] [nM] | Kd [2] [nM]
(H3K56ac-H4)2 tetramer (from UniProt P62799 1-103) (complex) | 11 | 
tetrasome with the fluorescent label on H4 (from UniProt P62799 1-103) (complex) |  | 35
